Legend:
[1] = target: T1, B(c)GFP, cyclic B component with C-terminal GFP (Di13BLB_C_GFP); assay: stepwise array assembly on NIH/3T3 cells
[2] = target: T1, B(c)GFP, cyclic B component with …; assay: calibrated microscope, corrected for FRET between GFP and mScarlet
[3] = target: T1, B(c)GFP, cyclic B component with …; assay: quantitative fluorescence microscopy of preformed arrays

| Binder | binding result [1] | A/B ratio of arrays generated on cells [2] | mScarlet/GFP fluorescence ratio (arrays formed in vitro) [3] |
| --- | --- | --- | --- |
| A component of design #13 (D3 homooligomer, designed from 1d2t) (designed binder, also called component A; dihedral A) MGHHHHHHGGLALVATGNDTTTKPDLYYLKNSEAINSLALLPPPPAVGSIAFLNDQAMYEQGRLLRNTERGKLAAEDANLSSGGVANAFSGAFGSPITEKDAPALHKLLTNMIEDAGDLATRSAKDHYMRIRPFAFYGVSTCNTTEQDKLSKNGSYPSGHTSIGWATALVLAEINPQRQNEILKRGYELGQSRVICGYHWQSDVDAARVVGSAVVATLHTNPEFQAQLIKAKIEFKQHQKEL | binds |  |  |
| A(d)mScarlet, dihedral A component with N-terminal mScarlet (A_n_mScarlet) (designed binder, also called AmScarlet) NKIHGSHHHHHHGSTSGSAMVSKGEAVIKEFMRFKVHMEGSMNGHEFEIEGEGEGRPYEGTQTAKLKVTKGGPLPFSWDILSPQFMYGSRAFTKHPADIPDYYKQSFPEGFKWERVMNFEDGGAVTVTQDTSLEDGTLIYKVKLRGTNFPPDGPVMQKKTMGWEASTERLYPEDGVLKGDIKMALRLKDGGRYLADFKTTYKAKKPVQMPGAYNVDRKLDITSHNEDYTVVEQYERSEGRHSTGGMDELYKGGSGGSLALVATGNDTTTKPDLYYLKNSEAINSLALLPPPPAVGSIAFLNDQAMYEQGRLLRNTERGKLAAEDANLSSGGVANAFSGAFGSPITEKDAPALHKLLTNMIEDAGDLATRSAKDHYMRIRPFAFYGVSTCNTTEQDKLSKNGSYPSGHTSIGWATALVLAEINPQRQNEILKRGYELGQSRVICGYHWQSDVDAARVVGSAVVATLHTNPEFQAQLIKAKIEFKQHQK |  | 0.99 | 1.45 |
